Results published in US20230212549A1, “COMPOUNDS COMPRISING A […] LIGAND AND USE THEREOF” (priority 2021, published 2023).
Bridge positions count the residues as written; N and C are the ends.

T1: Ubiquitin carboxy-terminal hydrolase L3, P15374
T1 chain: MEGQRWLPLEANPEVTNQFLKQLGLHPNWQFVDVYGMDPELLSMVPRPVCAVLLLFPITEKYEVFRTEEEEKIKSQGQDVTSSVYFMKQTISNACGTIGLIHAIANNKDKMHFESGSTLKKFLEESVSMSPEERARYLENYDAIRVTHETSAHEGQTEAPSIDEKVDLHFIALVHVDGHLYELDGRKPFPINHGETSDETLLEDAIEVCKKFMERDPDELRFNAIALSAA

T2: PDE4D2 (h) (human), Q08499
T2 chain: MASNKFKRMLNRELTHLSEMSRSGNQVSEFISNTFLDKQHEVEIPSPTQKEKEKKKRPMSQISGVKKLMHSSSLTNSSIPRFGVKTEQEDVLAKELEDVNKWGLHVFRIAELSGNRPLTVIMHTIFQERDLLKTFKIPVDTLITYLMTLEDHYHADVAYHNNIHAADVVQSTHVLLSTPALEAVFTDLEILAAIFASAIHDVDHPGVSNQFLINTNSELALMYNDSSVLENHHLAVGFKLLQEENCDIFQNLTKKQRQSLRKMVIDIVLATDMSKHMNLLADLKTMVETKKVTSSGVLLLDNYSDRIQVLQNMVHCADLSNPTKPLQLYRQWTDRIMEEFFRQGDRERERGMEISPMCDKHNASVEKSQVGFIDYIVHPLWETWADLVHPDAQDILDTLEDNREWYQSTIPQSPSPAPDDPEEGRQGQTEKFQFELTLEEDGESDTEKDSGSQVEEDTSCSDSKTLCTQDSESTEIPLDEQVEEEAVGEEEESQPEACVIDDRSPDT

T3: Ubiquitin carboxyl-terminal hydrolase 5, P45974
T3 chain: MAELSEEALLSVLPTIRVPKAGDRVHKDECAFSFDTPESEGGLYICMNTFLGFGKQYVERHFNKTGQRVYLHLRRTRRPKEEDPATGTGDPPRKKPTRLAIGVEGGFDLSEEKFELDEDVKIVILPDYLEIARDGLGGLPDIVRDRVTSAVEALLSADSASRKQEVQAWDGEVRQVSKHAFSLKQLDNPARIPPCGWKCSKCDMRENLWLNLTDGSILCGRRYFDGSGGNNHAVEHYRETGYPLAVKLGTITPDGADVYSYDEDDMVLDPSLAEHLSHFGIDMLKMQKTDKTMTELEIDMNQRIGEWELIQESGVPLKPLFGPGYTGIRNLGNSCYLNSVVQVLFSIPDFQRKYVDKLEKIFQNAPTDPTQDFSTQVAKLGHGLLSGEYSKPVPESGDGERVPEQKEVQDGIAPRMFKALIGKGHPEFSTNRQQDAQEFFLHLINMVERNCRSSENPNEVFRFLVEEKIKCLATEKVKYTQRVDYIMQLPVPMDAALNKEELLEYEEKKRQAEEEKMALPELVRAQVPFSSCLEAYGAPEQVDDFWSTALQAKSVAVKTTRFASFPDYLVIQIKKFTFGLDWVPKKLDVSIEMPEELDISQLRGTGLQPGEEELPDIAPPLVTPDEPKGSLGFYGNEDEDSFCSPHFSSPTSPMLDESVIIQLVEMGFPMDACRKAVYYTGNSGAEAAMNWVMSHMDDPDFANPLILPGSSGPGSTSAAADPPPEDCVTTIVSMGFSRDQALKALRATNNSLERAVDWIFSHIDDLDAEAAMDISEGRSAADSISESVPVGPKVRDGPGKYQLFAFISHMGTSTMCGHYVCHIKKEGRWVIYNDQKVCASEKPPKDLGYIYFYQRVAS

T4: COX1(h) (human), P23219
T4 chain: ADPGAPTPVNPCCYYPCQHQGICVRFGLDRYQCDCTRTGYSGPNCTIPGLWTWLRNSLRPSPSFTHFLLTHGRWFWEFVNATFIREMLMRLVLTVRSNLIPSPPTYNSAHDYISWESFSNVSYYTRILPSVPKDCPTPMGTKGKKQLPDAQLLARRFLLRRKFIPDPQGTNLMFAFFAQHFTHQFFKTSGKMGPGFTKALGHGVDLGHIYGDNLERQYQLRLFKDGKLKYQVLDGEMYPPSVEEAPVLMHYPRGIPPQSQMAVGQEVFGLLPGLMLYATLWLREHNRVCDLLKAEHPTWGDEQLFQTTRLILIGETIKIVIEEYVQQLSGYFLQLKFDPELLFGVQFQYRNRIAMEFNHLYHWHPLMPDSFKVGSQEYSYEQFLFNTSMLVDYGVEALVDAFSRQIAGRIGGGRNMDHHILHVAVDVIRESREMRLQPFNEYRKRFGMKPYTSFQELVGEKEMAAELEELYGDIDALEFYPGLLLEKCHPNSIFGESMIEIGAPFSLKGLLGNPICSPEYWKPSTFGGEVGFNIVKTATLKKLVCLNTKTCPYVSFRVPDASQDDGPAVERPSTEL

T5: Caspase-3, P42574
T5 chain: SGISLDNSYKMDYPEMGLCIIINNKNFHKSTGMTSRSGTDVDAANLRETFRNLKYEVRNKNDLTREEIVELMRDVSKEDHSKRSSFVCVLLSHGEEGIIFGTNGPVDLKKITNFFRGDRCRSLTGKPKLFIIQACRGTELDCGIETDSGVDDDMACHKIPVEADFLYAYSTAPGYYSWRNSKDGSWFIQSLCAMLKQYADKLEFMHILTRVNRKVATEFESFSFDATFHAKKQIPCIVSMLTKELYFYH


Legend:
Experiment in all cases: cell-based or functional assay
[1] = molecular target: T1, Ubiquitin carboxy-terminal hydrolase …
[2] = molecular target: T2, PDE4D2 (h) (human), Q08499
[3] = molecular target: T3, Ubiquitin carboxyl-terminal hydrolase …
COX1(h) (human), P23219 = molecular target: T4, COX1(h) (human), P23219
Caspase-3, P42574 = molecular target: T5, Caspase-3, P42574

Binder	Percentage inhibition (%) at 1 µM [1]	Percentage inhibition (%) at 10 µM [1]	% inhibition of control enzyme activity, compound at 10 µM [2]	Percentage inhibition (%) at 1 µM [3]	Percentage inhibition (%) at 10 µM [3]	% inhibition of control enzyme activity, compound at 10 µM (COX1(h) (human), P23219)	Percentage inhibition (%) at 1 µM (Caspase-3, P42574)	Percentage inhibition (%) at 10 µM (Caspase-3, P42574)
Hex-CPPTQFCD-NH2 (bridge 1-7; not fully specified (bridges); printed as Hex-[Cys(tMeBn(DOTA-PP))-Pro-Pro-Thr-Gln-Phe-Cys]-Asp-NH2) [Hex-[Cys(tMeBn(DOTA-PP))-Pro-Pro-Thr-Gln-Phe-Cys]-Asp-NH2]	-1%	14%	-5%	3%	46%	10%	1%	-2%
Hex-CPPTQFC-OH (bridge 1-7; not fully specified (bridges); printed as Hex-[Cys(tMeBn(DOTA-AET))-Pro-Pro-Thr-Gln-Phe-Cys]-OH) [Hex-[Cys(tMeBn(DOTA-AET))-Pro-Pro-Thr-Gln-Phe-Cys]-OH]	0%	0%	-4%	-4%	-2%	8%	-2%	-1%
